These results are taken from article PMC6736995, “Insights Into Enhanced Complement Activation by Structures of Properdin and Its Complex With the C-Terminal Domain of C3b” (Frontiers in Immunology, 2019).

One experiment deals with C3b (Homo sapiens) (UniProt P01024). The note with it: cited from earlier work.
The target of experiment [1] is T1, P^N1′/456, biotinylated monomerized properdin (complex of P^N1′ with P^456) (human, UniProt P27918 28-134; P27918 256-469, biotinylated with EZ-Link Maleimide-PEG2-Biotin as described for C3b (site not stated)).
T1 construct: N-terminal Gly-Ser cloning scar from the BamHI site; properdin, human, P^N1′, res; 28-134; includes an additional Cys-Pro (res. 133-134) at the C-terminus of TSR1; C-terminal extension of three alanines from the NotI site; 256-469 (TSR4, TSR5, TSR6); The maleimide-biotin is surmised to sit on a free cysteine at the C-terminus of P^N1′ (Cys132/Cys133); source: HEK293-EBNA, co-expressed, purified …
Put plainly: SPR; biotinylated P^N1′/456 on a SensEye P-Strep chip; C3/C3b-CTC injected 2.4 × 10^-2 to 200 μM (200 μM point left out as an outlier); 20 mM HEPES pH 7.4, 0.005% Tween-20, 150 mM NaCl; 25°C; equilibrium end-point fit. The note with it: both partners purified. Background: SPR reads the build-up and loss of mass on a sensor chip optically.

Experiment [2] concerns the target T2, C3b, biotinylated at the free cysteine of the hydrolysed thioester (human, UniProt P01024 23-667; P01024 749-1663, biotin (EZ-Link Maleimide-PEG2-Biotin) on the free cysteine that is generated after hydrolysis of the reactive thioester).
T2 construct: complement C3 beta chain, human; C3b alpha' chain, human; Coupled to a streptavidin chip through the biotin; also called C3b coated chip; source: generated from C3 (purified from human plasma) with FB and FD, biotinylated, purified by SEC
Put plainly: SPR; biotinylated C3b on a SensEye P-Strep chip; P^N12/456 injected 1.2 × 10^-3 to 10 μM; low ionic strength, 20 mM HEPES pH 7.4, 0.005% Tween-20, 50 mM NaCl; 25°C; equilibrium end-point fit. Particulars: both partners purified.

In experiment [3] the target is T2, C3b, biotinylated at the free cysteine …. In words: SPR; biotinylated C3b on a SensEye P-Strep chip (IBIS-MX96); P^N12/456 injected 4.9 × 10^-3 to 40 μM in 14 2-fold steps; 20 mM HEPES pH 7.4, 0.005% Tween-20, 150 mM NaCl; 25°C; equilibrium end-point fit. Particulars: both partners purified.
Experiment [4] has as its target T3, C3 pro-convertase C3bB^dgf‡ generated on a C3b coated chip (human, UniProt P01024 23-667; P01024 749-1663; P00751 26-764, S699A | D279G | N285D, biotin (EZ-Link Maleimide-PEG2-Biotin) on the free cysteine that is generated after hydrolysis of the reactive thioester).
T3 construct: complement C3 beta chain, human; C3b alpha' chain, human; source: formed on the SPR chip: 100 nM FB^dgf‡ injected for 5 min over biotinylated C3b, 5 mM MgCl2; copies: + +
Put plainly: SPR; C3bB^dgf‡ or C3bBb^dgf‡ generated on a C3b coated chip before each injection; P^N12/456 injected (2.4 × 10^-4 to 2 μM on C3bB, 1.2 × 10^-4 to 1 μM on C3bBb); 20 mM HEPES pH 7.4, 0.005% Tween-20, 150 mM NaCl, 5 mM MgCl2; 25°C; equilibrium end-point fit. The note with it: both partners purified.

The target of the next experiment is T4, C3 convertase C3bBb^dgf‡ (human, UniProt P01024 23-667; P01024 749-1663; P00751 260-764, S699A | D279G | N285D, biotin (EZ-Link Maleimide-PEG2-Biotin) on the free cysteine that is generated after hydrolysis of the reactive thioester).
T4 construct: complement C3 beta chain, human; C3b alpha' chain, human; In the convertase stability assay (functional rows) the same complex was formed in solution from C3b that was not biotinylated; source: formed on the SPR chip: FB^dgf‡ (100 nM, 5 min) then FD (100 nM, 5 min) over biotinylated C3b, 5 mM MgCl2; copies: + +
T4 sequence (P01024 23-667, stated change not applied, one chain of several): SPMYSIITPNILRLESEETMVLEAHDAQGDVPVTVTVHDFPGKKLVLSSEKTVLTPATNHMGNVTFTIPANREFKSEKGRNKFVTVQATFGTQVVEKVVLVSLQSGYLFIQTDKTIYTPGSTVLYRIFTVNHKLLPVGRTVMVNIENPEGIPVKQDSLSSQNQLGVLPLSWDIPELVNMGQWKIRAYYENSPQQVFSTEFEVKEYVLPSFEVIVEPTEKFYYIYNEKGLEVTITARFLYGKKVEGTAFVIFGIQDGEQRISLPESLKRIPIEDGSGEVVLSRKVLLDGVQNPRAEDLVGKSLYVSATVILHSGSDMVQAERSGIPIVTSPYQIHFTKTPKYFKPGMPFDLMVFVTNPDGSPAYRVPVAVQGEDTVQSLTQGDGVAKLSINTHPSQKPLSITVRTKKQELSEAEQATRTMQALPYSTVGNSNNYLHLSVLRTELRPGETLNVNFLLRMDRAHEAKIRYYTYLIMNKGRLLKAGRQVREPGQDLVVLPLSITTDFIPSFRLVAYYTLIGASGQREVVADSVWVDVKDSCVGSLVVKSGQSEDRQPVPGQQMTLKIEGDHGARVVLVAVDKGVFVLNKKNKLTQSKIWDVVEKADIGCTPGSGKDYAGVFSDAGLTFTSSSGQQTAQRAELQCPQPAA
The description is as above. Particulars: both partners purified.

The target of experiment [5] is T2, C3b, biotinylated at the free cysteine …. In words: SPR; formation of C3bB and C3bBb on the chip: 100 nM FB^dgf‡ injected for 5 min over biotinylated C3b, then 100 nM FD for 5 min; buffer with 5 mM MgCl2; 25°C. The note with it: both partners purified.

T2 sequence (P01024 23-667, one chain of several): as the sequence (P01024 23-667, stated change not applied, one chain of several) above
T3 sequence (P01024 23-667, stated change not applied, one chain of several): as above
C3b (Homo sapiens), sequence (P01024 23-667): as the sequence (P01024 23-667, stated change not applied, one chain of several) above

Take “Properdin single vertices (from UniProt P27918)”: in the experiment with C3b (Homo sapiens), the Kd (as a rule, the free concentration of one partner at which half of the binding sites on the other are occupied at equilibrium, for simple one-to-one binding) is 7.8 µM.

B1: C3/C3b-CTC domain (C-terminal C345c domain of C3/C3b) (domain or fragment, human)
chain: GSNCFIQKSDDKVTLEERLDKACEPGVDYVYKTRLVKVQLSNDFDEYIMAIEQTIKSGSDEVQVGQQRTFISPIKCREALKLEEKKHYLMWGLSSDFWGEKPNLSYIIGKDTWVEHWPEEDECQDEENQKQCQDLGAFTESMVVFGCPN
notes: N-terminal Gly-Ser cloning scar from the BamHI site; complement C3, human, CTC (C345c) domain, res; 1517-1663; stop codon before the NotI site, no alanine extension; also called C3b/C3 CTC domain
On to B1, for which the dissociation constant (Kd) in experiment [1] came out at 18.6 ± 1.6 µM.

B2: P^N12/456, monomerized properdin (non-covalent complex of P^N12 with P^456) (complex, human)
chain 1: GSDPVLCFTQYEESSGKCKGLLGGGVSVEDCCLNTAFAYQKRSGGLCQPCRSPRWSLWSTWAPCSVTCSEGSQLRYRRCVGWNGQCSGKVAPGTLEWQLQACEDQQCCPEMGGWSGWGPWEPCSVTCSKGTRTRRRACNHPAPKCGGHCPGQAQESEACDTQQVCP
chain 2: GSVAGGWGPWGPVSPCPVTCGLGQTMEQRTCNHPVPQHGGPFCAGDATRTHICNTAVPCPVDGEWDSWGEWSPCIRRNMKSISCQEIPGQQSRGRTCRGRKFDGHRCAGQQQDIRHCYSIQHCPLKGSWSEWSTWGLCMPPCGPNPTRARQRLCTPLLPKYPPTVSMVEGQGEKNVTFWGRPLPRCEELQGQKLVVEEKRPCLHVPACKDPEEEELAAA
modifications: C-mannosylated Trp-ladder tryptophans; O-fucosylation of Thr92 and Thr151 (observed in the structure) | C-mannosylated Trp-ladder tryptophans; O-fucosylation of Thr272; N-glycosylation of Asn428
notes: N-terminal Gly-Ser cloning scar from the BamHI site; properdin, human, P^N12, res; 28-191 (N-terminal STB domain, TSR1, TSR2); stop codon before the NotI site, no alanine extension; 256-469 (TSR4, TSR5, TSR6); C-terminal extension of three alanines from the NotI site; TSR3 (res. 192-255) is absent; source: HEK293-EBNA, co-expressed (1:1 DNA ratio), purified from supernatant (Ni-Sepharose Excel, …)
As for B2, the Kd in experiment [2] came to 690 ± 40 nM; in experiment [3], 6.8 ± 0.2 µM; in experiment [4] it was 98 ± 2 nM; with C3 convertase C3bBb^dgf‡, 34 ± 1 nM.

B3: catalytically inactive (S699A) double-gain-of-function (D279G, N285D) factor B mutant (enzyme, human, UniProt P00751 26-764, looked up)
chain: TPWSLARPQGSCSLEGVEIKGGSFRLLQEGQALEYVCPSGFYPYPVQTRTCRSTGSWSTLKTQDQKTVRKAECRAIHCPRPHDFENGEYWPRSPYYNVSDEISFHCYDGYTLRGSANRTCQVNGRWSGQTAICDNGAGYCSNPGIPIGTRKVGSQYRLEDSVTYHCSRGLTLRGSQRRTCQEGGSWSGTEPSCQDSFMYDTPQEVAEAFLSSLTETIEGVDAEDGHGPGEQQKRKIVLDPSGSMNIYLVLDGSGSIGASDFTGAKKCLVNLIEKVASYGVKPRYGLVTYATYPKIWVKVSEADSSNADWVTKQLNEINYEDHKLKSGTNTKKALQAVYSMMSWPDDVPPEGWNRTRHVIILMTDGLHNMGGDPITVIDEIRDLLYIGKDRKNPREDYLDVYVFGVGPLVNQVNINALASKKDNEQHVFKVKDMENLEDVFYQMIDESQSLSLCGMVWEHRKGTDYHKQPWQAKISVIRPSKGHESCMGAVVSEYFVLTAAHCFTVDDKEHSIKVSVGGEKRDLEIEVVLFHPNYNINGKKEAGIPEFYDYDVALIKLKNKLKYGQTIRPICLPCTEGTTRALRLPPTTTCQQQKEELLPAQDIKALFVSEEEKKLTRKEVYIKNGDKKGSCERDAQYAPGYDKVKDISEVVTPRFLCTGGVSPYADPNTCRGDAGGPLIVHKRSRFIQVGVISWGVVDVCKNQKRQKQVPAHARDFHINLFQVLPWLKEKLQDEDLGFL
notes: complement factor B, human; also called FB^dgf‡
Take B3: in experiment [5], the binding result was “binds”.
